According to US6787341B2, “Pharmacological targeting of bacterial DNA ligase for treatment and prevention of bacterial infections” (priority 2001, dated 2004):
Residue numbers refer to the chain shown, from its start. Names and notes keep the numbering of the source.

B1: Y22A: E. coli LigA with Tyr22 replaced by alanine (protein, UniProt P15042 1-671, looked up, variant Y22A)
DNA ligase: MESIEQQLTELRTTLRHHEYLAHVMDAPEIPDAEYDRLMRELRELETKHPELITPDSPTQRVGAAPLAAFSQIRHEVPMLSLDNVFDEESFLAFNKRVQDRLKNNEKVTWCCELKLDGLAVSILYENGVLVSAATRGDGTTGEDITSNVRTIRAIPLKLHGENIPARLEVRGEVFLPQAGFEKINEDARRTGGKVFANPRNAAAGSLRQLDPRITAKRPLTFFCYGVGVLEGGELPDTHLGRLLQFKKWGLPVSDRVTLCESAEEVLAFYHKVEEDRPTLGFDIDGVVIKVNSLAQQEQLGFVARAPRWAVAFKFPAQEQMTFVRDVEFQVGRTGAITPVARLEPVHVAGVLVSNATLHNADEIERLGLRIGDKVVIRRAGDVIPQVVNVVLSERPEDTREVVFPTHCPVCGSDVERVEGEAVARCTGGLICGAQRKESLKHFVSRRAMDVDGMGDKIIDQLVEKEYVHTPADLFKLTAGKLTGLERMGPKSAQNVVNALEKAKETTFARFLYALGIREVGEATAAGLAAYFGTLEALEAASIEELQKVPDVGIVVASHVHNFFAEESNRNVISELLAEGVHWPAPIVINAEEIDSPFAGKTVVLTGSLSQMSRDDAKARLVELGAKVAGSVSKKTDLVIAGEAAGSKLAKAQELGIEVIDEAEMLRLLGS
B2: D36A: E. coli LigA with Asp36 replaced by alanine (protein, UniProt P15042 1-671, looked up, variant D36A)
DNA ligase: B1 DNA ligase with A22Y, D36A
B3: Y35A: E. coli LigA with Tyr35 replaced by alanine (protein, UniProt P15042 1-671, looked up, variant Y35A)
DNA ligase: B1 DNA ligase with A22Y, Y35A
B4: E10A: E. coli LigA with Glu10 replaced by alanine in domain Ia (protein, UniProt P15042 1-671, looked up, variant E10A)
DNA ligase: B1 DNA ligase with E10A, A22Y
B5: D32A: E. coli LigA with Asp32 replaced by alanine (protein, UniProt P15042 1-671, looked up, variant D32A)
DNA ligase: B1 DNA ligase with A22Y, D32A
B6: H23A: E. coli LigA with His23 replaced by alanine (protein, UniProt P15042 1-671, looked up, variant H23A)
DNA ligase: B1 DNA ligase with A22Y, H23A
B7: D32N: E. coli LigA with Asp32 mutated to Asn (protein, UniProt P15042 1-671, looked up, variant D32N)
DNA ligase: B1 DNA ligase with A22Y, D32N
B8: D36N: E. coli LigA with Asp36 mutated to Asn (protein, UniProt P15042 1-671, looked up, variant D36N)
DNA ligase: B1 DNA ligase with A22Y, D36N
B9: D32E: E. coli LigA with Asp32 mutated to Glu (protein, UniProt P15042 1-671, looked up, variant D32E)
DNA ligase: B1 DNA ligase with A22Y, D32E
B10: D36E: E. coli LigA with Asp36 mutated to Glu (protein, UniProt P15042 1-671, looked up, variant D36E)
DNA ligase: B1 DNA ligase with A22Y, D36E

system: E. coli LigA; assay type: biochemical; conditions: not given
Description: Reaction mixtures containing 1 pmol of ^32P-labeled nicked DNA-adenylate (AppDNA) and either 8 pmol of wild-type (WT) E. coli ligase, deletion mutants NΔ38 and NΔ78, or the full-length ligase proteins containing the indicated alanine mutations in domain Ia were incubated for 60 min at 22° C. The reaction products were resolved by denaturing PAGE. An autoradiograph of the gel is shown. Control reaction mixtures containing either ^32P-labeled nicked DNA-adenylate (AppDNA) or nicked DNA (pDNA) substrates and no ligase are shown in lanes -. The positions of the pDNA, AppDNA, and ligated 36-mer DNA strands are indicated by arrows on the right. The position of the radiolabeled phosphate of AppDNA is denoted by •. The nicked DNA-adenylate substrate used in the ligation reactions is illustrated at the bottom.
The nicked DNA-adenylate substrate is illustrated in FIG. 13. The DNA-adenylate ligation reaction mixtures (20 μl) contained 50 mM Tris-HCl (pH 7.5), 5 mM DTT, 5 mM MgCl2, 200 fmol of nicked DNA-adenylate substrate, 2 pmol of wild-type or mutant EcoLigA proteins as specified were incubated at 22° C. The sealing reactions were initiated by adding ligase. Aliquots (20 μl) were withdrawn at the times specified and quenched immediately with EDTA and formamide. The products were resolved by denaturing PAGE and the extents of ligation were determined by scanning the gel with a phosphorimager. The extent of strand joining is plotted as a function of reaction time.
The third step of the ligation pathway entails attack of the 3′ OH of the nick on the 5′ PO4 of the DNA-adenylate to form a phosphodiester and release AMP. Step 3 of the ligation reaction was assayed using a pre-adenylated nicked DNA substrate labeled with ^32P on the 5′ PO4 of the DNA-adenylate strand (FIG. 13).

Molecule | effect on rate or extent (yield) of phosphodiester formation at a pre-adenylated nick
B1 | no effect
B2 | no effect

same assay, conditions: qualitative, magnesium, no added NAD+

Molecule | phosphodiester formation at pre-adenylated nick
B3 | catalytically active
B4 | catalytically active
B1 | catalytically active
B5 | catalytically active
B2 | catalytically active
B6 | catalytically active

system: E. coli LigA; assay type: biochemical; conditions: 1 μM [32P-AMP]NAD+, 15-120 s
Description: (§1) FIG. 12A: Aliquots (5 μg) of wild-type (WT) E. coli ligase, N-terminal deletion mutants NΔ38 and NΔ78, and the full-length ligase proteins containing the indicated alanine mutations in domain Ia were analyzed by SDS-PAGE. A Coomassie blue-stained gel is shown. FIG. 12B: Ligase adenylation reaction mixtures (20 μl) containing 50 mM Tris-HCl (pH 7.5), 5 mM DTT, 5 mM MgCl2, 1 μM [α-^32P]NAD^+ and 8 pmol of WT ligase, NΔ38, NΔ78, or the indicated alanine mutants were incubated for 5 min at 37° C. The reaction products were resolved by SDS-PAGE and visualized by autoradiography. FIG. 12C: Nick joining reaction mixtures (20 μl) containing 50 mM Tris-HCl (pH 7.5), 10 mM (NH4)2SO4, 5 mM DTT, 5 mM MgCl2, 20 μM NAD^+, 1 pmol of ^32P-labeled nicked DNA, and increasing amounts of WT ligase or the indicated alanine mutants were incubated for 10 min at 22° C. The extents of ligation are plotted as a function of input protein.
FIG. 15A: Aliquots (5 μg) of wild-type (WT) E. coli ligase and proteins containing the indicated mutations in domain Ia were analyzed by SDS-PAGE. The Coomassie blue-stained gel is shown. The positions and sizes (in kDa) of marker proteins are indicated on the left. FIG. 15B: Ligase adenylation reaction mixtures (20 μl) containing 50 mM Tris-HCl (pH 7.5), 5 mM DTT, 5 mM MgCl2, 1 μM [α-^32P]NAD^+ and 8 pmol of WT ligase or the indicated mutants were incubated for 5 min at 37° C. The reaction products were resolved by SDS-PAGE and visualized by autoradiography.
Reaction mixtures containing (per 20 μl) 50 mM Tris-HCl (pH 7.5), 5 mM DTT, 5 mM MgCl2, 1 μM [^32P-AMP]NAD^+ and 8 pmol of ligase were incubated at 22° C. Aliquots (20 μl) were withdrawn at 15, 30, 60 and 120 s and then quenched immediately with SDS. The products were analyzed by SDS-PAGE. Formation of the ligase-[^32P]AMP adduct is plotted as a function of time.
The first step in DNA ligation involves formation of a covalent enzyme-adenylate intermediate.

Molecule | rate of ligase adenylation (kinetic pattern)
B7 | faster than D32E
B8 | faster than D36E
B6 | reacted slowly

same assay, conditions: qualitative

Molecule | ligase adenylation (ligase-AMP formation) with NAD+
B7 | partially active
B3 | less active
B9 | more severely affected
B4 | did not affect
B1 | virtually inert
B5 | virtually inert
B2 | virtually inert
B8 | partially active
B10 | more severely affected
B6 | less active

system: E. coli LigA; assay type: biochemical; conditions: not given; remark: another data set of the same source
Description: as §1
To further probe the role of domain Ia in NAD^+ recognition and nucleotidyl transfer, single alanine substitutions were introduced at six positions in the Ia domain of E. coli LigA. The six mutated Eco ligase residues—Glu10, Tyr22, His23, Asp32, Tyr35, and Asp36—correspond to the six residues that were subjected to alanine scanning mutagenesis in AmEPV ligase (FIG. 11). […] The conserved positions are denoted by shaded boxes in FIG. 11. The Eco ligase mutants E10A, Y22A, H23A, D32A, Y35A, and D36A were produced in E. coli and purified by Ni-agarose chromatography in parallel with wild-type ligase (FIG. 12A).
To evaluate the roles of charge, hydrogen bonding potential, and steric constraints in the functions of the domain Ia residues implicated in the step 1 reaction with NAD^+, the effects of conservative substitutions were tested. Tyr22 and Tyr35 were replaced by Phe and Ser, His23 was changed to Tyr, and Asp32 and Asp36 were mutated to Glu and Asn. The recombinant mutant ligases were purified from soluble bacterial extracts by Ni-agarose chromatography (FIG. 15A). The specific activity of each mutant was determined under steady-state conditions by protein titration and normalized to the specific activity of wild-type ligase.

Molecule | nick ligation (qualitative)
B1 | virtually inert
B5 | virtually inert
B2 | virtually inert

same assay, conditions: specific activity by protein titration under steady-state conditions, normalized to wild-type ligase

Molecule | Nick Joining Activity (% of WT)
B7 | 9 % of WT
B3 | 2 % of WT
B9 | 0.4 % of WT
B4 | 90 % of WT
B1 | 0.1 % of WT
B5 | 0.2 % of WT
B2 | 0.2 % of WT
B8 | 12 % of WT
B10 | 4 % of WT
B6 | 10 % of WT
